From the DeepSol protein solubility set

Assay: soluble on expression in E. coli; label from the status in PepcDB or PDB records

Sequence | soluble on expression in E. coli
MTCTTEIDILKWTVRYCSSLAAHLLTPTRLFKYEIQQQSDLRNATENKTEKYISDDVGHCRHTYMQIR | soluble
MGSDKIHHHHHHMKQELALFIKKIIDLPAAEEKKLLAITRVYKVPKGDFYIQIGQIPKKFAFVAKGLFRYVYIDSKGNEFTKNFVPENNFALAYSSMIRHEVSKMAIEALEDSIICEIDYTDWLTLKKGNACWNIFLITILENAFTIKENRERDLLLLDAEQRYETFRQEFPALETRVKQHLIASYLGISPVSLSRIRKKRT | not soluble
GPGSMALATTGYPALASSHSFANASTSVMTASAMAVVRRAATTTGASAATTTPQVVHYSKLGMDGFTDIKFNTAADELLELVETKVDALDSAAVEDVSCNGGVLTLETTDRGTFILNKQAPNVQLWLSSPISGPHHYDMITVTQGGHEKVSWKSDHDGHDLVKKLEEELTEVLGTDFKV | soluble
MKKATCLTDDQRWQSVLARDPNADGEFVFAVRTTGIFCRPSCRARHALRENVSFYANASEALAAGFRPCKRCQPDKANPRQHRLDKITHACR | soluble
MEKLVAYKRMPLWNKQTMPEAVQQKHNTKVGTWGKITVLKGALKFIELTEEGEVLAEHLFEAGADNPMAQPQAWHRVEAATDDVEWYLEFYCKPEDYFAKKYNTNPVHSEVLEAMQTVKQGKALDLGCGQGRNSLFLAQQDFDVTAVDQNGLALEILQSIVEQEDLDMPVGLYDINSASIEQEYDFIVSTVVLMFLQADRIPAIIQNMQEKTSVGGYNLIVCAMDTEDYPCSVNFPFTFKEGELADYYKDWELVKYNENPGHLHRRDENGNRIQLRFATLLAKKIKLEHHHHHH | soluble
MILDYIYHSGFAIEAEGVTLIIDYYKDSSETELNKGIVHDRLLQRPGKLYVLASHFHPDHFNREVLTWKEQRPDIIYIFSKDILKHHRAQKEDAIYINKGEEYEDDMLRIQAFGSTDVGISFLIHLQGKSIFHAGDLNNWHWSEESTEQEIRKAEGDFLAEIKYLQAAVPTIDLVMFPVDRRMGKDYMKGAQQFIERIKTTIFVPMHFSEDYEGGNAFRSIAEAGGCRFITITHRGESFDI | not soluble
MLRVLSRQAFSMVRAANFSASASSAGGGGLSDEVRKRIDGIVKKDDVVVFMKGTQQEPACGFSRNVKLVLDFHNVKFQDYNVLTDQELREGVKIFSEWPTIPQVYVKGEFVGGCDILISMHKDGEISDFLDEKGISNKYGKQ | not soluble
GERLSEAEVLSLFDLPLPELAAAAHEVRLKKTDPEVVTFLIDRNINYTNVCTVACAFCAFYRTKRQKDAYTLSYEEIARKVEELYQVGGRRILMQGGVNPELPLVWYLDLLRYLKSRFPDLRIDAFSPEEILGLERLTGLRAEAILEKLKEAGLDGLPGAGAEILVDEVRLKAAPARIRTADWYRIVDAAQALGLYTLATMVIGFGEGPKERTAHLLGLRAQQDRALERYENGFAAFALWTLQVEHTRLKGKAPGATAHEYLKTLAVARLALDNFAHFQASWPTLGFKVAQAALYYGADDFGSTMLEENVVSAAGGHGRTHATVRQIVRHIVDAGFKPAER | not soluble
MSLDRNLYEDTFVVFDVETTGLSAVYDTIIELAAVKIKGGEIVDRFESFANPHHALSQTTIDLTGITDDMVNDAPEVADVLKDFHTWMGNDILVAHNASFDMGFLNQGFQRIDYEKASNPVVDTLELARFLLPELRNHRLNTLCKHLDIELTQHHRAIYDAEATGYLLWKLVQRLVEKEISNHEGHHHHHH | soluble
MGSDKIHHHHHHAELPAGTVIDKANLDKIKSDTFDGHTIASLLTDKLEWQIRNTGLKIPLGHAKPVQLDPKYIEATKKNAGKAQFDEKSREVTGWVAGIPFPEVSQNDPFAGDKLVWNFYYASPEGDVINNKATFLMISGDKGLESTQDWLFERYYMKGRISGDKPVLGDGSILSKTLFVATAPEDIKGVGTFTIRYDSPKLEDSWAYIKSARRTRRLSGGAWMDPVGGLDVLNDDIYVWNARPSWYPKVKLVGRRWILAISDAKLGYNASKKGTPEEWKTVDLSNPPYWNPVQTWQPREVWVIEGTPPAEHPYGKKVVYMDVNYPRVYMGEAYDKKGEFWKFINFHMTPSVGEDGTKYSSSIQGDIIDFKARHASIYLFRGYKLNEAKIKETDMSYSALESIAK | not soluble
MGSDKIHHHHHHMVMERGEIIGIVLQKSEANEMQGLIRADEEISVGQLLLVDDSEKLSLVRVENYEFLNEFFDEKGEIAKSILKEPSIYEILDMNTIIKATLHLIKKYDHNTTPKPGSFVRRLPEIKSEKELLSFYGIKNKKGLIEYGALAGSEIPLLLDLNAITMHMGVFGETGSGKSYNMRYLIKLLSNIKIGDKITALPMIVIDANGDYIDLASTNLDIVSKGRGWIKRYILKDPKEQNDIKLTIDLSIFTPRELSEFIMSLKYGEASYNTLQLNFLEQVLANHESKEYNTLLGSAIGIETLRNEILTMAQNKDIGITTGTARGIASALEIFKNKVISRLQLVNSSASLTENTLEVIWRNRGLAIIDFSADGSPGVDVLTKQLIVSYITRLIFNYLTRSKYNGNQRFLGFVIEEAQNYIPSIDYPVNANLTKDVLVTLATQGRKFGASLILVSQRPAFIDKYVLSMINTFFFHRIYHEDVRYVMSASGGLPESLTKNLTSLDTGYVIVSGLMSIMKSPALVRIPWDPRLGSYAGNVERIDLILSEG | not soluble
GSHMEEAKGPVKHVLLASFKDGVSPEKIEELIKGYANLVNLIEPMKAFHWGKDVSIENLHQGYTHIFESTFESKEAVAEYIAHPAHVEFATIFLGSLDKVLVIDYKPTSVSL | soluble
MTSIEWDEKTFTKFAYLSDPRTRKNLVAYVLTKANLESNKYENTIVIENLEDGSRKFIEDASMPRISPDGKKIAFMRFNEEKKTAQIWVADLKTLSAKKVLEAKNIRSIEWNQDSRRLLAVGFKRREDEDFIFEDDVPAWFDNMGFFDGEKTTFWVIDTEGEEVIEQFEKPRFSSGIWHGDSIVVSVPHRDVIPRYFKYWDIYLWKDGEEEKLFEKVSFYAIDSDGERILLYGKPEKKYVSEHDKIYIYDGEVKGILDDIDREVAQAKIRNGKVYFTLFEEGSVNLYLWDGEVREIAKGKHWIMGFDADERLIYLKETATRPAELYLWDGEERQLTDYNGLIFKKLKTFEPRHFRFKSIDLELDGWYIKPEIKEGEKAPVIVFVHGGPKGMYGYYFKYEMQLMASKGYYIVYVNPRGSNGYSEDFALRVLERTGLEDFQDILNGIEEFLRLEPQADRERIGITGISYGGYMTNWALTQSDLFKAGISENGISYWLTSYAFSDIGLWFDKEVIGDNPLENENYRKLSPLFYAKNVKAPLLLIHSLEDYRCPLDQSLMFYHVLKDLGKEVYIAIFKKGAHGHSIRGSPRHRMKRYKLFMEFFERKLKKYEEGFDVEKILKEEKK | soluble
MRITLIVLAALSFACTSCWFETGPDRFIYQLSWFCAESSCERGDDLNQFNRAETYGTDFAMSSTSASDLATSATIVVSATLGRDCRLVLDLVLFGHELDESILCFTPNGFELTVTIPDEDPETSSTWVVMAREL | not soluble
MTKPVVDVKNVQKVYGKKGENQSHALKGVSFSIQEGEFVGIMGPSGSGKTTLLNVISTLDKATGGVVEIAGTDITKMKQGELSDFRSQKLGFIFQDFNLLENLSIYENIALPLSLQGVPSRNIGPKVEKVADMLGISAILQKYPSEVSGGQKQRSAAARALVHEPAIILGDEPTGALDSKNATSLLDAMTNLNQEQGVSIMMVTHDPFSASYCQRILFIQDGELYKEIHRGGTREEFYKEILDVLADLGTQKA | not soluble
MGSDKIHHHHHHMKHTQISRREFLKNIGMTGAGVLLAASPWLSAFSEAVNTSNEKCRLGVIGPGSRGRFLMSFLVQNPKVDIVALCDIYQPSIDEALKLAPKAKVYGDYRELLENNNIDAILVATPLSSHCKIVMDAFDAGKHVFCEKTIGFTMEECFRMYNKHRSTGKIFFTGQQRLFDPRYIKAMEMIHAGTFGEINAIRTFWYRNGDWRRPVPSANLERQINWRLYKEYSKGLMTELACHQLQIGSWALNKLPEKVMGHGAITYWKDGREVYDNVSCLYVFDDGVKMTFDSVISNQFYGLEEQIMGNLGTVEPEKGKYYFESIPPAPGFLQMINDWENKLFDTLPFAGTSWAPETANENKGELILGERPKSDGTSLLLEAFVEAVITRKQPARIAEEGYYASMLCLLGHQALQEEKTLYFPDEYKINYLNHQSKTSEAV | not soluble
MRVIKIQTKGDVRISYAIETIRINEWTKAIAEVIFEKDGVPEWEIEAVSRMSSDYVGSLGSEFEILDVSIDRRTNSYKIKGKYEGFYLAGTPIEAIEKDIVESVLSLRFESLDVYEVNIEDPFEDYDPSEYWELMDWEELEHHHHHH | not soluble
KKPDTLWVNKRVVKCPEEVAQQLAVEAGSDVFLLKRIRYVDEEAVSIEESWVPAHLIHDVDAIGISLYDYFRSQHIYPQRTRSRVSARMPDAEFQSHIQLDSKIPVLVIKQVALDQQQRPIEYSISHCR | not soluble
MSLFKKNFDIKDDRNLTMLVDFYELTMGNGYLNKNVGNKTAYFDMFFRRVPDNGGYCIMAGVQQLTEYLSNLRFTKEDIDYLRSKHEFSEEFLSYLKDFKFECDVWAVPEGNPVFPNEPLVTVKGPAIQAQFVETMILLTINHQTLIATKANRICRAAGNRPVMEFGSRRAQGYDGAIYGARAAVIGGCSSTACTISEQMFGVNAVGTMAHSWVQLFDNEFEAFKAWADVYPENCVLLVDTYNVLKSGLPNAIKVFDEVLKPKGIRPSGIRIDSGDITYLTKKCRKILDEAGYSDCKIVISNSLDEHIITDVLLQGAEVDSFGVGERLITAKSEPVFGGVFKLCAVENDEGNIVPKIKISENQEKITNPGFKKIYRLFDKETDKALADLITLNDEVIDETKPLEIFDPIYTWKKKKLTHYYVKDLRVQLFKKGELVYENPEVLEIRNIAKKETEKLWAEVLRLENPHTYYVDLSKKLWDLKHNLLEKYSNAEGHHHHHH | soluble
MKFEDLLATNKQVQFAHAATQHYKSVKTPDFLEKDPHHKKFHNADGLNQQGSSTPSTATDANAASTASTHTNTTTFKRHIVAVDDISKMNYEMIKNSPGNVITNANQDEIDISTLKTRLYKDNLYAMNDNFLQAVNDQIVTLNAAEQDQETEDPDLSDDEKIDILTKIQENLLEEYQKLSQKERKWFILKELLLDANVELDLFSNRGRKASHPIAFGAVAIPTNVNANSLAFNRTKRRKINKNGLLENIL | soluble
MTESDLRTHATEIHEQFSDQLEIDVDDVIERLDTLVNDYQVPISEARRSVVNTYLDEAGMDRDQLGGGDGGGNEQVNVADVDAPEEWVDVRATVVELWEPRADAVAQVGLLGDETGTIKFTKWSKSDLPSLEEGKSYALRNVVTDEYQGRFSVKLNRTTTIEELDEAIEVGDDSVEADGALVDIQSGSGLIKRCPEDDCTRVLQNGRCSEHGEVEGEFDLRIKGVLDDGEEVTEVIFDEDATEELTGIALEEAKEMAMDALDTTVVADEMRQKILGRYYRVRGPTFGRYLLADEQERLTGAVDADEILIKARSILEHHHHHH | not soluble
MGSDKIHHHHHHMNNLIVTPGYASQFSCIGSACEDSCCHDWTIIFDKKSYKNTLNHPKLASLAKEAFIETKTDANQWAQIKLNANGTCPFVNEQQLCAIHAAAGETALSHTCKTYPRINNVIATTKYESLSLSCPEAARLVLFDANAFQFEAKSGGAKRPTAANPAWLEKTYDYSLDLLINMGVDWQQALMAIGLLVKVSDQVRQNALPIAQIDQRFEQLILLAQTKEITAQYQKIPYTPQPQTHAFVSIHDQLCKLHSRSLKPRFTSLNEAIGLLCNEGNQYQIDHLNKAWEEKALPALSNYQDLFDRYILYSLYHEHFPMIHSQQPWMAFRLLVIDCFMIRCYLSAMAFKNNGLTESDIVLCFQLYSVVRQHKAKFAEGINQTLQECGIDSIPAAISLLKTS | not soluble
